# Data published in PMC8196545 (Cell reports, 2021).
# Residue numbers refer to the chain shown, from its start.
# B1: c5616 (antibody, V domains shown)
# VH: LVRLAESGGGVVRPGESLTLSCATSGFSFSSYGMHWVRQIPGKGLEWVAVIWNDGSRRYYSDSVQGRFTIAKDTSNKTLSLHMRDLQVGDTAVYFCARAYGPQSEMDSWGLGTLVTVSS
# VL: SSELTQPPSVSVSPGQTAILTCVGDILPRKHAYWYRQRAGRAPTLIVFGDNNRPSGIPARFSGFTSGTVATLVITAAQVDDGGDYFCYSADNSGNHRGVFGGGTRLTIL
# B2: c26412 (antibody, V domains shown)
# VH: EVRLVQSGGGVVRPGGSLRLSCSASGFSFSRSAMSWVRQAPGKELQWVAAISGSGNSHHISDAFRGRVSISRNNENDSVFLQMSNLRLDDTGKYFCAKSEGGRSGWYYWATEYFQHWGQGAVVTVSS
# VL: SSELTQPPSVSVSPGQTARISCSGHTLPQRYATWYQQKPGRAPLLIIFGNNERPSGIPARFSVSASGKSAILTITGVQAEDEGDYICQSSDGSHTSLFFGGGTKLTVL
# B3: c10969 (antibody, V domains shown)
# VH: AGHLVESGGKLISPGGSLSLSCVASGFTFKNAHMTWVRQVPGKGLEWIALMKSHADGSHTDYSPSVRDRCAISRDDSTSSLFLHLYNLQLDDTGIYYCVHLSSPDEWGLGTAVTVSS
# VL: HIVLTQSPVTLSGSQGDTVALSCRANQSLRSHLAWYQHRPGQTPKVLIYEVSRRRPATPPRFSGSGSGTEFTLVIRGLEPEDSAVYYCQQGDFWPFSFGQGTNLEIT
# B4: c5358 (antibody, V domains shown)
# VH: RLQLRESGPALVRPSETLSLTCTVSGGPTSDFFWSWVRQAAGGRLEWIGRIYASDGSTKMNPALHTRIGLELNTLENIFNLRLLSVTAADTAVYFCVREEVHGYDSWNSDSGTYNGIDAWGLGTPVTVSS
# VL: SVVLTQPPSVSGSPGETVIISCTRSSGAIPSRHVQWYRQRPGGLPARVIFANSQRPHWVPDRYSASVDASSNTASLTISGLQPDDEAKYFCQSFDDTRHHHIVFGGGTEVIVV
# B5: c10819 (antibody, V domains shown)
# VH: EMRLEESGGALVKPGGSLRLSCVASGFKLSEWSLMWVRQAPGKGLQWVSSISLNQDYISYAGSVRGRFDVFRDRTQTSLLLNMNKLKTEDTGIYFCARVHAWRYFDWVNRRSPVEKVLSIDLWGRGTLVIVSS
# VL: SGATQPPSVSVSKGETARITCSGVELSSQYVSWYRQRPGQSPVLVMFHNNSRASRIPERFSASDSGDTATLTIAGAQDVDEAEYYCQTWDSKNYVTFGGGTKLTVL
# B6: c5260 (antibody, V domains shown)
# VH: QVRLQESGPRLVKPSETLSLTCTVSGASVTSYSWSWIRYSAERGLEWIGRILPTIGSNRANPSLHFRVGMSADTSKNLLSLRLTSLTAADTAIYFCARDLVRDYDSWGGDYSTFHGIDVWGQGTTVIVSL
# VL: NSLLTQPPSVSESPGKTVNISCTRTSGAITWDFVQWYQKRPGSVPTVVIYANDRRPSGVPDRFSGSIDSSSNSAALTISRLKTEDEAEYYCQSFHPRSHVVFGGGTKLTVL
# B7: c5299 (antibody, V domains shown)
# VH: QVRLLESGPGLVKPSGTLSLTCHVSGASVTSFSWSWVRQSAQKGLQWLGRILPTNGSNKSNPSLHPRVGLAADTSTNQLSLRLTSVTAADSGIYFCARDFVRDYDSWASDYSTLHGIDVWGPGTSVTVSF
# VL: NSLLTQPPSVSESPGKTVTISCTRTSGDITWDFVQWYRHRPGTSPTLVIFANDRRASGVPDRFSGSIDSSSNTAALTISGLKTDDEADYYCQSFHPRYHVVFGGGTKLTVL
# B8: c807 (antibody, V domains shown)
# VH: QVQLQESAPRLVTTSETLSLTCTVFGGQFYPFFYSWVRQSPGGKLQWIGRKYSSTGSMRTNPSLHTRVGMPLDHSKSQIGLTMSSMTAADTGIYYCVRDIMREFDSVDGSGGVYGGVDVWGRGTTVTVSS
# VL: NFMLTQPPSVSESPGKTVTISCTRNSGSIASNSVYWYRQRPGSPPTTLIHDNNRRPTGVPDRFSASIDTSSNSASLTISSLKTEDEADYYCQSYDNGNHVIFGGGTNLLVL
# B9: c31993 (antibody, V domains shown)
# VH: EVQLVQSGAEVKKPGESLKISCKCSGYTFSDHWIGWVRQRPEKGLEWMGIIFPDDSETRYSPSFEGQVTFSVDTASSTAYLLWNSLKPSDTATYYCARQESDEVRGARYDIWGQGTVVAVSS
# VL: QSVLTQPPSVSGTPGQRVTISCSGSTSNVENNYVFWYQQLPGKAPELLIDGSNQRPSGVPDRFSGSKSGISASLAISGLRSEDEAYYYCAAWDESFVYLFGGGTKLTVL
# B10: c10895 (antibody, V domains shown)
# VH: QEQGIESVRAAVESGASLIISCPTSGFDFARYTMHWVRQAPGKGLEWVAVTSSQGEKKYYSEAVKGRFVITRNNFKRTLYLEMSSLKPEDAGVYYCARSQGYCGTYACYGYYYYMDVWVKGPTVIVSS
# VL: QSVLTQPPSVSAAPGEKVAISCSGNTTNIEKNYVAWYQHVPETAPKLLIFENHKRPFGIPDRFSGSKSATSATLGISDLQTADEADYYCQTWDTKLHIWVFGGGTKLTVL
# B11: c24118 (antibody, V domains shown)
# VH: EVRLVESGGSLVQPGGSLRLSCSASGFSFSKSAMSWVRQAPGKELEWVAAISGSGNSHHISDAVRGRFSISRDNLGDSVFLQMYNLRVDDTAKYFCAKSEGGRSGWYYWATEYFQHWGQGAVVTVAS
# VL: B2 VL with T26A, Q36R, R41Q, L44I, S62F, S69T, F98V
# B12: c5229 (antibody, V domains shown)
# VH: QMQLQESGPRLVKPSETLTVTCSVSGGSMSHFHWSWIRQSAGKGLEWIGSVYGNSGSVRSNPSLHTRVAFSLGRGQISLNLKWATAADTAVYYCARELARDFDYNFGHGGSSFGIEVWGRGTLVTVSS
# VL: NFILTQPHSVSGSPGKTVIISCTRSSGNIGDNSVQWYQQRPGTPPRTVISEKNKRPSGVPDRFSASIDTSSNSASLTISGLTTEDEADYYCQSCDSGNRLIFGGGTTLTVL
# B13: c24103 (antibody, V domains shown)
# VH: B11 VH with V5A, E6Q, S10G, E46Q, H58Q, F68L, G76D, Q82H, Y84N, D89E
# VL: B2 VL with T26A, Q36R, R41Q, L44I, I47V, S69T, I71M, F98V
# B14: c5373 (antibody, V domains shown)
# VH: QVRLQESAPRVVKPSESLSLTCTVSGGSIFPFFYSWIRQAPGGGLQWIGRLYSNTGSSKSNPSLHLRVALSVDRSRNQVGLKMTSMTAADTGVYYCVRDIMREFDDFNGAGGVYGGVDIWGRGTAVTVSS
# VL: QFVLTQPPSVSESPGKTISISCTRSSGTFARNSVHWYLQRPGSVPKTVIYDGNRRPSGIPGRFSASIDVSSGSASLTISGLTTEDEAEYYCQSFDGGNHVVFGGGTKVTVL
# B15: c24356 (antibody, V domains shown)
# VH: QVQVVQSGAEVKQPGASVSVSCKVLGYTLSELSMHWVRQSPAKGLEWMAGFDPDANKEIYAQEFQGRVTLTHHFDTDTYFLELTSLRSDDTAVYYCATGERLAGNFLDWLHNFDYWGQGTLVTVSA
# VL: EIVLTQSPATLSLSPGERATLSCRASQSIGNYLAWYQQRPGQAPRLLIHSTSNRATGIPVRFTGSGSGTDFTLTISSLEAEDFAVYYCQHRVNWPPGYTFGQGTKLDIK
# B16: c5266 (antibody, V domains shown)
# VH: QVRLQESGPGLVKPSETLSLTCSVSGASVTAYSWSWVRLSAERGLEWIGRILPTIGSNRSNPSLHMRVGMSADTSKNLLSLRLTSVTAADTATYFCARDLVRDYDSWGGDYSTFHGIDVWGQGITVTVSL
# VL: NSLLTQPPSVSESPGKTVNISCTRTSGGITWDFVQWYQQRPGRAPAIVIYANDRRPSGVPDRFAGSIDSSSNSAALIISGLITEDEADYYCQSFHPRGHVVFGGGTKLTVL
# B17: c27003 (antibody, V domains shown)
# VH: QFQLVQSGAEVRSPGSSVTVSCKASGSTFHTYVLSWVRQAPGQGLEWMGGIIPIFATPKYAQKFQGRVTFTADEGTSTAYMDLRSLRPEDTAVYYCARSATGGTALVDYGDYEGDTFYHNHMDVWGAGTTVTVSS
# VL: QSVLTQPPSASATPGQRVTISCSGRTSNVGSYAVSWYQQLPGTAPKLVIYSDDRRPSGVPDRFSGSKSGTSASLAISGLQSEDEADFYCAAWDDSLKTPVFGGGTKLTVL
# B18: c26986 (antibody, V domains shown)
# VH: QVHLVQSGAEVKKPGSSVKVSCKASGGSFNTNFITWVRQAPGQGLEWMGRIMPMFGTRNLAQRFQGRVTLSADTSSNSVYMELSSLTFGDTAVYFCAREAPAGGLDIWGQGTLVTVSS
# VL: QIVLTQSPGTLSLSPGERATLSCRASQSLSSNYLAWYQQKPGQAPRLLIYGASSRATGIPDRFSGSGSGTDFTLTISRLEPEDFAVYYCQQYSTLFSFGPGTRVDIK
# B19: c5331 (antibody, V domains shown)
# VH: HVHLQESGPGLVKPSETLSVTCQVSGSPLSRYFWSWIRQPAGGGLEWIGRHYPSSGSNTASAALHTRITMSMDFRNNRLSLTLRSVTAADTAVYYCTRDVMRDFNDVNGSGGTFRGVEFWGRGTTVTVSS
# VL: SFILTQPHAVSESPGKTVTISCTRSSGSIDTAYVHWYQQRPGRPPTTLIYDANQRPSGVPDRFSASVDSSSSSASLTISGLEAEDEAIYYCQSSDSGHRVVFGGGTELTVL
# B20: c22681 (antibody, V domains shown)
# VH: QIRLVESGGALVKPGGSLRLSCTASGFPFGHYYLSWVRQGPGRGLEWVAHISARSTTIVYADSVRGRFTISRDNDKRSLYLEMNDLRVDDTAMYYCARDSFKWTWEYFDAWGQGTRVSVSS
# VL: QSVLTQPPSVSGAPGQTVAISCSGSTSNIGHNPVSWYRNVPGTAPRIIIFSDSQRPSGIPGRFSGSKSGTSASLVITDLQLEDEGDYYCAAWGGSLRGALFGGGTKVTVL
# B21: c5272 (antibody, V domains shown)
# VH: EVRLQESGPELVKPSGTLSLTCTIYGESIFPYFYSWIRQTAGGGLQWIGRLYSSTGSSKSNPSIHLRVALSVDRDRNQVGLRMTSMSLADTGVYYCVRDVMRGYDSFDGSSGIYGGVDIWGRGTTVTVSS
# VL: QFLLTQPHSVSESPGKTITISCTRSSGTFASKSVLWFSQRPGSRPTNVIFETNRRAAGVPDRFSGSVDSSSSSATLTISGLRTEDEGDYYCQSYDGGNHVVFGGGTKVTVL
# Molecular target: HIV-1 NL4-3 Env on infected cells (HIV-1 group M subtype B, NL4-3 (pNL4-3 …, strain))
row,Binder,binding result
1,B1,binds
2,B2,binds
3,B3,binds
4,B4,binds
5,B5,binds
6,B6,binds
7,B7,binds
8,B8,binds
9,B9,binds
10,B10,binds
11,B11,binds
12,B12,binds
13,B13,binds
14,B14,binds
15,B15,binds
16,B16,binds
17,B17,binds
18,B18,binds
19,B19,binds
20,B20,binds
21,B21,binds
